{
  "source": "patent US20220227809A1",
  "binders": {"B1": {"name": "norovirus-binding peptide of SEQ ID NO: 167 (peptide)", "peptide": "FVWRRRAGLY", "modifications": "also: biotinylated via PEG3 (AEEEA)-Trp spacer, attachment site and resin-derived C-terminal Lys or Cys not given here"}, "B2": {"name": "norovirus-binding peptide of SEQ ID NO: 263 (peptide)", "peptide": "ANYRWSRSIK", "modifications": "also: biotinylated via PEG3 (AEEEA)-Trp spacer, attachment site and resin-derived C-terminal Lys or Cys not given here"}, "B3": {"name": "norovirus-binding peptide of SEQ ID NO: 288 (peptide)", "peptide": "CKARSARGVS", "modifications": "also: biotinylated via PEG3 (AEEEA)-Trp spacer, attachment site and resin-derived C-terminal Lys or Cys not given here"}, "B4": {"name": "norovirus-binding peptide of SEQ ID NO: 205 (peptide)", "peptide": "FVWSRRTGLY", "modifications": "also: biotinylated via PEG3 (AEEEA)-Trp spacer, attachment site and resin-derived C-terminal Lys or Cys not given here"}, "B5": {"name": "norovirus-binding peptide of SEQ ID NO: 103 (peptide)", "peptide": "RFLVPVVKVM", "modifications": "also: biotinylated via PEG3 (AEEEA)-Trp spacer, attachment site and resin-derived C-terminal Lys or Cys not given here"}, "B6": {"name": "norovirus-binding peptide of SEQ ID NO: 283 (peptide)", "peptide": "RSMSLHVSMT", "modifications": "also: biotinylated via PEG3 (AEEEA)-Trp spacer, attachment site and resin-derived C-terminal Lys or Cys not given here"}, "B7": {"name": "norovirus-binding peptide of SEQ ID NO: 302 (peptide)", "peptide": "VWWGRRISRF", "modifications": "also: biotinylated via PEG3 (AEEEA)-Trp spacer, attachment site and resin-derived C-terminal Lys or Cys not given here"}},
  "note": "Ends that are not written are not given here.",
  "data": [
    {"target": "norovirus GII.3 TCH strain virus-like particle (VLP) (norovirus GII.3 TCH strain)", "assay": "BLI (BLItz), biotinylated peptide on SA chip, VLP in solution", "units": {"Kd": "nM", "koff": "s⁻¹", "kon": "M⁻¹ s⁻¹"}, "values": [
      {"binder": "B1", "Kd": 1.39, "koff": 0.00435, "kon": "3.14e+06"},
      {"binder": "B2", "Kd": 57.5, "koff": 0.049, "kon": 851000},
      {"binder": "B3", "Kd": 6.86, "koff": 0.0143, "kon": "2.09e+06"},
      {"binder": "B4", "Kd": 31.6, "koff": 0.0325, "kon": "1.03e+06"},
      {"binder": "B5", "Kd": 8.07, "koff": 0.017, "kon": "2.1e+06"},
      {"binder": "B6", "Kd": 0.909, "koff": 0.00715, "kon": "7.86e+06"}
    ]},
    {"target": "norovirus GII.17 Saitama strain virus-like particle (VLP) (norovirus GII.17 Saitama strain)", "assay": "BLI (BLItz), biotinylated peptide on SA chip, VLP in solution", "units": {"Kd": "nM", "koff": "s⁻¹", "kon": "M⁻¹ s⁻¹"}, "values": [
      {"binder": "B1", "Kd": 0.696, "koff": 0.00111, "kon": "1.59e+06"},
      {"binder": "B3", "Kd": 12, "koff": 0.00747, "kon": 620000},
      {"binder": "B4", "Kd": 109, "koff": 0.0184, "kon": 169000},
      {"binder": "B5", "Kd": 8.13, "koff": 0.0112, "kon": "1.38e+06"},
      {"binder": "B7", "Kd": 28.4, "koff": 0.0648, "kon": "2.28e+06"},
      {"binder": "B6", "Kd": 1.39, "koff": 0.00138, "kon": 994000}
    ]}
  ]
}
